How the values were obtained:
Experiment in all cases: Km, Vmax and Vmax/Km of substrates for plasmin (pig)
Type in all cases: biochemical, Porcine (pig)
[1] = substrate: Cc1ccc(S(=O)(=O)NCCCC[C@@H](N)C(=O)N[C@@H](Cc2ccccc2)C(=O)N[C@@H](CCCCN)C(=O)Nc2ccc([N+](=O)[O-])cc2)cc1
[2] = substrate: CC(C)OC(=O)C[C@@H](N)C(=O)N[C@@H](Cc1ccccc1)C(=O)N[C@@H](CCCCN)C(=O)Nc1ccc(O)c(C(=O)O)c1; details: other: TABLE 2, CHA substrates, plasmin (pig), 2,6-xylenol 615 nm
[3] = substrate: NCCCC[C@H](NC(=O)[C@H](Cc1ccccc1)NC(=O)[C@H](N)CCC(=O)NCCc1ccccc1)C(=O)Nc1ccc([N+](=O)[O-])cc1; details: other: TABLE 1, PNA substrates, plasmin (pig), 405 nm
[4] = substrate: NCCCC[C@H](NC(=O)[C@H](Cc1ccccc1)NC(=O)[C@H](N)CCC(=O)OC1CCCCC1)C(=O)Nc1ccc([N+](=O)[O-])cc1; details: other: TABLE 1, PNA substrates, plasmin (pig), 405 nm
[5] = substrate: Cc1ccc(S(=O)(=O)NCCCC[C@@H](N)C(=O)N[C@@H](CC(C)C)C(=O)N[C@@H](CCCCN)C(=O)Nc2ccc(O)c(C(=O)O)c2)cc1; details: other: TABLE 2, CHA substrates, plasmin (pig), 2,6-xylenol 615 nm
[6] = substrate: CC(C)C[C@H](NC(=O)[C@H](N)C(C)C)C(=O)N[C@@H](CCCCN)C(=O)Nc1ccc(O)c(C(=O)O)c1; details: other: TABLE 2, CHA substrates, plasmin (pig), 2,6-xylenol 615 nm
[7] = substrate: NCCCC[C@H](NC(=O)[C@H](Cc1ccccc1)NC(=O)[C@H](N)CCCCNC(=O)OCc1ccccc1)C(=O)Nc1ccc(O)c(C(=O)O)c1; details: other: TABLE 2, CHA substrates, plasmin (pig), 2,6-xylenol 615 nm
[8] = substrate: Cc1ccc(CCNC(=O)CC[C@@H](N)C(=O)N[C@@H](Cc2ccccc2)C(=O)N[C@@H](CCCCN)C(=O)Nc2ccc(O)c(C(=O)O)c2)cc1; details: other: TABLE 2, CHA substrates, plasmin (pig), 2,6-xylenol 615 nm
[9] = substrate: CC(C)C[C@H](NC(=O)[C@H](N)C(C)C)C(=O)N[C@@H](CCCCN)C(=O)Nc1ccc([N+](=O)[O-])cc1
[10] = substrate: NCCCC[C@H](NC(=O)[C@H](Cc1ccccc1)NC(=O)[C@H](N)CCCCNS(=O)(=O)c1ccccc1)C(=O)Nc1ccc(O)c(C(=O)O)c1; details: other: TABLE 2, CHA substrates, plasmin (pig), 2,6-xylenol 615 nm
[11] = substrate: NCCCC[C@H](NC(=O)[C@H](Cc1ccccc1)NC(=O)[C@H](N)CCCCNC(=O)c1ccccc1)C(=O)Nc1ccc(O)c(C(=O)O)c1; details: other: TABLE 2, CHA substrates, plasmin (pig), 2,6-xylenol 615 nm
[12] = substrate: CC(=O)NCCCC[C@@H](N)C(=O)N[C@@H](Cc1ccccc1)C(=O)N[C@@H](CCCCN)C(=O)Nc1ccc(O)c(C(=O)O)c1; details: other: TABLE 2, CHA substrates, plasmin (pig), 2,6-xylenol 615 nm
[13] = substrate: Cc1ccc(S(=O)(=O)NCCCC[C@@H](N)C(=O)N[C@@H](CC(C)C)C(=O)N[C@@H](CCCCN)C(=O)Nc2ccc([N+](=O)[O-])cc2)cc1; details: other: TABLE 1, PNA substrates, plasmin (pig), 405 nm
[14] = substrate: Cc1ccc(S(=O)(=O)NCCCC[C@@H](N)C(=O)N[C@@H](Cc2ccccc2)C(=O)N[C@@H](CCCCN)C(=O)Nc2ccc(O)c(C(=O)O)c2)cc1; details: other: TABLE 2, CHA substrates, plasmin (pig), 2,6-xylenol 615 nm
[15] = substrate: NCCCC[C@H](NC(=O)[C@H](Cc1ccccc1)NC(=O)[C@H](N)CCCCNS(=O)(=O)c1ccc2ccccc2c1)C(=O)Nc1ccc(O)c(C(=O)O)c1; details: other: TABLE 2, CHA substrates, plasmin (pig), 2,6-xylenol 615 nm
[16] = substrate: NCCCC[C@H](NC(=O)[C@H](Cc1ccccc1)NC(=O)[C@H](N)CCCCNS(=O)(=O)c1ccc2ccccc2c1)C(=O)Nc1ccc([N+](=O)[O-])cc1; details: other: TABLE 1, PNA substrates, plasmin (pig), 405 nm
[17] = substrate: Cc1ccc(CCNC(=O)CC[C@@H](N)C(=O)N[C@@H](Cc2ccccc2)C(=O)N[C@@H](CCCCN)C(=O)Nc2ccc([N+](=O)[O-])cc2)cc1; details: other: TABLE 1, PNA substrates, plasmin (pig), 405 nm
[18] = substrate: NCCCC[C@H](NC(=O)[C@H](Cc1ccccc1)NC(=O)[C@H](N)CCCCNC(=O)c1ccc2ccccc2c1)C(=O)Nc1ccc(O)c(C(=O)O)c1; details: other: TABLE 2, CHA substrates, plasmin (pig), 2,6-xylenol 615 nm
[19] = substrate: Cc1ccc(S(=O)(=O)NCC(=O)N2CCC[C@H]2C(=O)N[C@@H](CCCCN)C(=O)Nc2ccc([N+](=O)[O-])cc2)cc1
[20] = substrate: NCCCC[C@H](NC(=O)[C@H](Cc1ccccc1)NC(=O)[C@H](N)CCCCNS(=O)(=O)c1cccc2ccccc12)C(=O)Nc1ccc(O)c(C(=O)O)c1; details: other: TABLE 2, CHA substrates, plasmin (pig), 2,6-xylenol 615 nm
[21] = other: Porcine Plasmin, comparison table in description
[22] = other: TABLE 1, PNA substrates, plasmin (pig), 405 nm

B1: plasmin (pig) (Sus scrofa) (protein)
chain: RIYLSECKTGNGKNYRGTTSKTKSGVICQKWSVSSPHIPKYSPEKFPLAGLEENYCRNPDNDEKGPWCYTTDPETRFDYCDIPECEDECMHCSGEHYEGKISKTMSGIECQSWGSQSPHAHGYLPSKFPNKNLKMNYCRNPDGEPRPWCFTTDPNKRWEFCDIPRCTTPPPTSGPTYQCLKGRGENYRGTVSVTASGHTCQRWSAQSPHKHNRTPENFPCKNLEENYCRNPDGETAPWCYTTDSEVRWDYCKIPSCGSSTTSTEYLDAPVPPEQTPVAQDCYRGNGESYRGTSSTTITGRKCQSWVSMTPHRHEKTPGNFPNAGLTMNYCRNPDADKSPWCYTTDPRVRWEYCNLKKCSETEQQVTNFPAIAQVPSVEDLSEDCMFGNGKRYRGKRATTVAGVPCQEWAAQEPHRHSIFTPETNPRAGLEKNYCRNPDGDDNGPWCYTTNPQKLFDYCDVPQCVTSSFDCGKPKVEPKKCPARVVGGCVSIPHSWPWQISLRHRYGGHFCGGTLISPEWVLTAKHCLEKSSSPSSYKVILGAHEEYHLGEGVQEIDVSKLFKEPSEADIALLKLSSPAIITDKVIPACLPTPNYVVADRTACYITGWGETKGTYGAGLLKEARLPVIENKVCNRYEYLGGKVSPNELCAGHLAGGIDSCQGDSGGPLVCFEKDKYILQGVTSWGLGCALPNKPGVYVRVSRFVTWIEEIMRRN
- Km [1, 21]: 16 µM
- Km [1, 22]: 15.8 µM
- Km [2]: 352 µM
- Km [3]: 27.9 µM
- Km [4]: 32.2 µM
- Km [5]: 1000 µM
- Km [6]: 3210 µM
- Km [7]: 496 µM
- Km [8]: 417 µM
- Km [9, 21]: 348 µM
- Km [9, 22]: 348 µM
- Km [10]: 532 µM
- Km [11]: 334 µM
- Km [12]: 250 µM
- Km [13]: 189 µM
- Km [14]: 206 µM
- Km [15]: 179 µM
- Km [16]: 17.9 µM
- Km [17]: 39.4 µM
- Km [18]: 325 µM
- Km [19, 21]: 278 µM
- Km [19, 22]: 278 µM
- Km [20]: 596 µM
